Reference: EP2857035B1

Tests used:
HLA-A3 (human) = assay: assembly assay, TAP-deficient cell lysate, W6/32 IP, IEF gel
HLA-A1 (human) = assay: as above
HLA-A2 (human) [1] = assay: as above
HLA-A2 (human) [2] = assay: assembly assay (HLA stabilisation), T2 cell lysate, IP, IEF gel

“Influenza A, nucleoprotein 265-273 (peptide)” was tested, and the C50 (HLA-A3 (human)) was 0.1 µM.

Work on C1, Influenza A, PB1 591-599 (peptide) yielded a C50 (HLA-A1 (human)) of 0.8 µM.

C1, HIV-1 pol476-484 (peptide) showed a C50 (HLA-A2 (human) [1]) of 0.2 µM and a C50 (HLA-A2 (human) [2]) of 0.7 µM.
